Measured values: US20160137713A1

Experiments:
[1] = biological target: human FcRn on HEK293 cells (human) (UniProt P55899); test: FACS competition on hFcRn HEK293 cells at pH 6.0; remaining binding of 100 nM Alexa488-labeled hIgG1 (m14) with 1000 nM unlabeled competitor, percent of the tube without competitor
[2] = biological target: human FcRn on HEK293 cells (human) (UniProt P55899); test: FACS competition on hFcRn HEK293 cells at pH 6.0; remaining binding of 100 nM Alexa488-labeled hIgG1 (m14) with 500 nM unlabeled competitor, percent of the tube without competitor
[3] = biological target: human FcRn on HEK293 cells (human) (UniProt P55899); test: FACS on hFcRn-overexpressing HEK293 cells at pH 7.4, Alexa488 anti-human goat antibody; hIgG1 is the reference of the ratio
[4] = biological target: human FcRn on HEK293 cells (human) (UniProt P55899); test: FACS competition on hFcRn HEK293 cells at pH 6.0; remaining binding of 100 nM Alexa488-labeled hIgG1 (m14) with 250 nM unlabeled competitor, percent of the tube without competitor
[5] = biological target: human FcRn on HEK293 cells (human) (UniProt P55899); test: FACS on hFcRn-overexpressing HEK293 cells at pH 6.0, Alexa488 anti-human goat antibody; hIgG1 is the reference of the ratio

Relative MFI(%) at 1000nM [1]: 69.1%
Relative MFI(%) at 500nM [2]: 69.9%
Relative MFI (Fold) [3]: 1 fold
Relative MFI(%) at 250nM [4]: 87.4%
Relative MFI (Fold) [5]: 1 fold
Substance: human IgG1 (antibody)
